Data as given in article PMC10644391 (2023).
Ends that are not written are not given here.

Target: T1, HEG1 cytoplasmic tail 7-mer peptide cytoplasmic tail 7-mer (Homo sapiens, UniProt Q9ULI3, also: Cy5-labelled)
T1 chain: SRRRDYF
Assay: fluorescence polarization

B1: KRIT1 417-736 (protein)
chain: KPYEKVRIYRMDGSYRSVELKHGNNTTVQQIMEGMRLSQETQQYFTIWICSENLSLQLKPYHKPLQHVRDWPEILAELTNLDPQRETPQLFLRRDVRLPLEVEKQIEDPLAILILFDEARYNLLKGFYTAPDAKLITLASLLLQIVYGNYESKKHKQGFLNEENLKSIVPVTKLKSKAPHWTNRILHEYKNLSTSEGVSKEMHHLQRMFLQNCWEIPTYGAAFFTGQIFTKASPSNHKVIPVYVGVNIKGLHLLNMETKALLISLKYGCFMWQLGDTDTCFQIHSMENKMSFIVHTKQAGLVVKLLMKLNGQLMPTERNS
Q: How did the Kd turn out when B1 was run?
A: 13 nM
